Assay results taken from US20100303785A1 (RAMOT AT TEL AVIV UNIVERSITY, published 2010).

Target: T1, Recombinant tau containing three tubulin binding repeats (3R) (Homo sapiens, UniProt P10636-5 1-410, limits assumed)
T1 construct: also called Tau protein 3R; 3R-tau
Assay: dot blot: peptide on nitrocellulose, incubated with 3R tau, detected with tau5 antibody
Method: The membrane was further incubated with 2 μM tau-three microtubule binding domain repeats (1.5 hr, room temperature). The non-specific sites were blocked by soaking in a blocking solution (10 mM Tris, 6 mM NaCl, 0.05% Tween 20) that was supplemented with 5% low-fat milk (1 hr at room temperature). The membrane was incubated with primary antibody (tau5 antibody 1:1000), dissolved in 5% milk in blocking solution (12 hours at 4 C). The membrane was then washed three times with the blocking solution (3×10 min), incubated with secondary antibody conjugated with horseradish peroxidase (HRP) (1 hr at room temperature) and washed again three times with blocking solution (10 min×3). The membrane was incubated with ECL reagent (Western blotting detection system; Amersham Biosciences) for 1 min, covered and exposed Biomax Light Film (Kodak, Rochester, N.Y., USA).

T1 sequence (P10636 other isoform, or with tags, fused parts or gaps limits assumed): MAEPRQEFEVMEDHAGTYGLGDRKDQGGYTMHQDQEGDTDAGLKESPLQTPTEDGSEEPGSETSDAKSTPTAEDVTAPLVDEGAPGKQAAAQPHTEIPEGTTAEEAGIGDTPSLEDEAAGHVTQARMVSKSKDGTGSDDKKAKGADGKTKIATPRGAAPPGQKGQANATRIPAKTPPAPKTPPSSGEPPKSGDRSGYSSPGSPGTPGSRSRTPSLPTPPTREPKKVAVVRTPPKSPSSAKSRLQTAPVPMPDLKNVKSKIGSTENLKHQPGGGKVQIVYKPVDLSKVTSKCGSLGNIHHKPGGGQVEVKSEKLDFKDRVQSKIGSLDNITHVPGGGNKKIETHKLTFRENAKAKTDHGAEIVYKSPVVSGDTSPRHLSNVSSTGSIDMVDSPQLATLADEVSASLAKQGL

binding result: no binding
B1: vasoactive intestinal peptide VIP (peptide, UniProt P01282 125-152, looked up)
peptide: HSDAVFTDNYTRLRKQMAVKKYLNSILN
notes: Negative control peptide in the dot blot; the assay used the peptide itself; also called VIP peptide; control peptide
